Key:
Assay in all cases: P.E. binding ELISA, antigen coated at 1 ug/ml, anti-c-Myc detection
pCD163-SRCR1-9-huFc = target: T1, pCD163-SRCR1-9-huFc (porcine, UniProt Q2VL90 51-1028)
T1 construct: Limits 51-1028 are those the description gives for CD163-SRCR1-9; also called porcine CD163 SRCR1 to SRCR9 (no PST2) with human Fc; soluble CD163; not shown: human Fc (huFc)
T1 sequence: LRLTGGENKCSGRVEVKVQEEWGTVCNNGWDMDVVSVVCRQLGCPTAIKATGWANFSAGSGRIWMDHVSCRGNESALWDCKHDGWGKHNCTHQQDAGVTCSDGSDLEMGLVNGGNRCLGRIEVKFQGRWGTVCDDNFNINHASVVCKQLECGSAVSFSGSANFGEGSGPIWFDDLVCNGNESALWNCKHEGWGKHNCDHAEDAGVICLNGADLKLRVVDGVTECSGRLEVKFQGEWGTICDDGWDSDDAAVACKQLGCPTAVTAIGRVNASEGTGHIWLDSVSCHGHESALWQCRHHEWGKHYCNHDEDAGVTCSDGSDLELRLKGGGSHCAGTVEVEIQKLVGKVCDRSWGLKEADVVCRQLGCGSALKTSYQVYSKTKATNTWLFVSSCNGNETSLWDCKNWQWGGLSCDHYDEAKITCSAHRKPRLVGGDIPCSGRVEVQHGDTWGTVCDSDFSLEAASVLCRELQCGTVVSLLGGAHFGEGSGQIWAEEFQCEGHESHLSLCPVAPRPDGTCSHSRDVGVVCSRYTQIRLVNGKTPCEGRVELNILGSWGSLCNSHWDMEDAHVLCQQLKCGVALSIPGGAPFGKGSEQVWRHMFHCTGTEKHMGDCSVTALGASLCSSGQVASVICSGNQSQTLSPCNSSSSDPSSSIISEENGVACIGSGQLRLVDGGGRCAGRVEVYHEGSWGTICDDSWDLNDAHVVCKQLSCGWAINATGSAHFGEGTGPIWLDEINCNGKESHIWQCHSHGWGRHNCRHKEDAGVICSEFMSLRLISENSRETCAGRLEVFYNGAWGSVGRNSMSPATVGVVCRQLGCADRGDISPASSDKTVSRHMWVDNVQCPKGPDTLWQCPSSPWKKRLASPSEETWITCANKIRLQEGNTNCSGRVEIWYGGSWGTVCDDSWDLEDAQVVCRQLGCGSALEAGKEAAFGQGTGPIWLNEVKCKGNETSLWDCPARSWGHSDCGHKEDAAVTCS
Procedure: (§1) For P.E. binding ELISA, MaxiSorp™ high protein-binding capacity 96 well ELISA plates, were coated with 1 μg/ml of pCD163-SRCR-FL-PST2-His or huCD6-pPST2-His, or pCD163-SRCR1-9-huFc protein, diluted in PBS, overnight at 4° C. The next day, plates were washed 3× with PBS Tween 0.05% (pH 7.4) and blocked for 1 hour at room temperature with 250 μl/well of 4% Marvel/PBS. After blocking, plates were washed 3× with PBS Tween 0.05% (pH7.4) and incubated per well with 20 μl of P.E+80 μl in 1% Marvel/PBS (pH7.4), for 1 hour at room temperature (RT) with shaking. Plates were washed 3× with PBS Tween 0.05% (pH7.4) and incubated with 100 μl of anti-c-Myc antibody (Roche; Cat. nr. 11667203001) followed by secondary antibody DAM-HRP (JIR; Cat. nr. 715-035-150) in 1% Marvel/PBS (pH7.4), for 1 hour at RT with shaking. Plates were washed 3× with PBS Tween 0.05% (pH7.4) and the substrate solution (TMB solution) was added to the plates. Reaction was stopped with H2SO4 and plates read in the plate reader at 450 nm.

pCD163-SRCR-FL-PST2-His = target: T2, pCD163-SRCR-FL-PST2-His (porcine, UniProt Q2VL90 51-1044)
T2 construct: also called pCD163-1-PST2-His; pCD163-SRCR1-PST2; not shown: His tag
T2 sequence: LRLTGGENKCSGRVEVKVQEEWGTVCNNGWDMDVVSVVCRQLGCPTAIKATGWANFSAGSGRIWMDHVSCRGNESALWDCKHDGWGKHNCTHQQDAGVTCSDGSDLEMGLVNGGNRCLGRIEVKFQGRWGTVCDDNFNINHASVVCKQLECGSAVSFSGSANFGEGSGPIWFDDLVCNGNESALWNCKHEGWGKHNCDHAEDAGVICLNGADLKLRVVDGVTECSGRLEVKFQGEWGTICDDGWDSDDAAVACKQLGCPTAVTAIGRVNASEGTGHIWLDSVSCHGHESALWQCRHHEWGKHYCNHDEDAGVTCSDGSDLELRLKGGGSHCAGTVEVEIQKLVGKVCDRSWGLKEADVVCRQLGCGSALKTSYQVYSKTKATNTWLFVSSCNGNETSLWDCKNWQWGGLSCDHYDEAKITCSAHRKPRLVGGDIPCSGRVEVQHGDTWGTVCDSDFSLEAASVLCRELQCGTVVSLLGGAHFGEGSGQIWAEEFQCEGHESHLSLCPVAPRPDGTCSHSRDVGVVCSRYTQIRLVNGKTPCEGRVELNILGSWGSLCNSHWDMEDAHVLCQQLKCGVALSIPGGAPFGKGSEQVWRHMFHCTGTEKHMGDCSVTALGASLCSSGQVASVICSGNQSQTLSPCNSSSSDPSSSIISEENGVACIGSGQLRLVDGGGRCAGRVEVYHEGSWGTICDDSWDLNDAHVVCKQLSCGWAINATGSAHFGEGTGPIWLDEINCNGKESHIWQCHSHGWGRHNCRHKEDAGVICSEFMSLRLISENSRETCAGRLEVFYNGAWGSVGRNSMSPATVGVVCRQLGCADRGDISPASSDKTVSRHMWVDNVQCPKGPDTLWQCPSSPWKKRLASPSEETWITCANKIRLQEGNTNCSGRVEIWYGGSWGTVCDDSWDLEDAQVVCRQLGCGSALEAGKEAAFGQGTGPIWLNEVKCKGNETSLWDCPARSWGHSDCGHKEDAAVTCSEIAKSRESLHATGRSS
Procedure: as §1

huCD6-pPST2-His = target: T3, huCD6-pPST2-His (human, UniProt P30203 18-402)
T3 construct: composition read from the name; not shown: His tag
Procedure: as §1

T3 sequence (P30203 whole entry): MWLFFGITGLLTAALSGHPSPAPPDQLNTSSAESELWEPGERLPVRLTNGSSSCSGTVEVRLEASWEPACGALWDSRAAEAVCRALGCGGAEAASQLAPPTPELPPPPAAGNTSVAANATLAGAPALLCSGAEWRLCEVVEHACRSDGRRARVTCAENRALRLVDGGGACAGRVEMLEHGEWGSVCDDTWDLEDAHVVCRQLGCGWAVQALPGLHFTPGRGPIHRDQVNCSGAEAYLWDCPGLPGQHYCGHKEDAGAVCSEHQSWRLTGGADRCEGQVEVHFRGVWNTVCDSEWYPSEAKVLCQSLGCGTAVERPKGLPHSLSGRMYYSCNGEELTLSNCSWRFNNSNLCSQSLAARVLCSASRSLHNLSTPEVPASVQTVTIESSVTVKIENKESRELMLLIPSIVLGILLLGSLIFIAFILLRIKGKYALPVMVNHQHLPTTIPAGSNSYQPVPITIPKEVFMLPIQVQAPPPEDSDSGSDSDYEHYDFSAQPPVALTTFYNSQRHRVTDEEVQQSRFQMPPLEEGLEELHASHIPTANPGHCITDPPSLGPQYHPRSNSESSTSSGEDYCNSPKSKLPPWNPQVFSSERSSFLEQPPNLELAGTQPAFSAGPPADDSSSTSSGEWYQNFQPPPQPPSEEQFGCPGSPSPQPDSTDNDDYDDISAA

B1: Clone 39-H17B11 VHH antibody (VHH)
VHH: QVQLVESGGGLVQAGGSLRLSCAASGRTFSSYAMGWFRQTPGKDREFVARIGWTGGTTIYADSVKGRFTISRDNAKNTVYLQMNSLKPEDTAVYYCAADQAGWRTAGVRNTYEYDYWGQGTQVTVSS
notes: Llama single domain antibody; also called clone 17B11; not shown: tags: c-myc tag on the soluble VHH in periplasmic extracts; FLAG and His tags on the purified VHH
With B1 the “O.D. 450 nm” value (pCD163-SRCR1-9-huFc) was 0.091 O.D. 450 nm, the “O.D. 450 nm” value (pCD163-SRCR-FL-PST2-His) was 0.066 O.D. 450 nm and the “O.D. 450 nm” value (huCD6-pPST2-His) was 0.052 O.D. 450 nm.
